What was measured:
[1] = biological target: SARS-CoV-2 S-protein RBD (expressed in P. pastoris) (SARS-CoV-2 (Wuhan-type)) (UniProt P0DTC2); assay: BLI; settings: BLI (BLItz, streptavidin sensors, immobilized aptamer 200 nM; RBD 50-200 nM): PBS, 0.55 mM MgCl2, 0.1 mg/mL BSA, 0.002% Tween-20, room temperature …
[2] = biological target: SARS-CoV-2 S-protein RBD (expressed in CHO cells) (SARS-CoV-2 (Wuhan-type)) (UniProt P0DTC2); assay: BLI; settings: BLI (BLItz, streptavidin sensors, […]; RBD 50-200 nM): PBS, 0.55 mM MgCl2, 0.1 mg/mL BSA, 0.002% Tween-20, room temperature; binding-buffer pH not stated

Sequence	Kd [1] [nM]	Kd [2] [nM]
TTTTTTTTTTCAGCACCGACCTTGTGCTTTGGGAGTGCTGGTCCAAGGGCGTTAATGGACA [Biotin-CoV2-RBD-1C]	0.8	5.8
ATCCAGAGTGACGCAGCATTTCATCGGGTCCAAAAGGGGCTGCTCGGGATTGCGGATATGGACACGTTTTTTTTTTT [CoV2-RBD-4-Biotin]	5.5	21
ATCCAGAGTGACGCAGCATCGAGTGGTGGGCTGGTCGGGTTTGGATTCCCTTAGATGCTGGACACGGTGGCTTAGTTTTTTTTTTT [CoV2-RBD-2-Biotin]	10	4.3
TTTTTTTTTTATCCAGAGTGACGCAGCATTTCATCGGGTCCAAAAGGGGCTGCTCGGGATTGCGGATATGGACACGT [Biotin-CoV2-RBD-4]	14	18
TTTTTTTTTTATCCAGAGTGACGCAGCAGTAGGGGGATTGGCTCCAGGGCCTGGCTGACGGTTGCACGTGGACACGGTGGCTTAGT [Biotin-CoV2-RBD-6]	3.5	29
ATCCAGAGTGACGCAGCAGGACTGCTTAGGATTGCGAAGCTGAGGAGCTCCCCCGCCTTGGACACGGTGGCTTAGTTTTTTTTTTT [CoV2-RBD-5-Biotin]	1.2	26
TTTTTTTTTTATCCAGAGTGACGCAGCACTGCGTAGGCGCGGCCAATGTGTAGGATTGCTCAGGTCTGCTGGACACGGTGGCTTAGT [Biotin-CoV2-RBD-3]	1.4	40
TTTTTTTTTTATCCAGAGTGACGCAGCATCGAGTGGTGGGCTGGTCGGGTTTGGATTCCCTTAGATGCTGGACACGGTGGCTTAGT [Biotin-CoV2-RBD-2]	–	17
ATCCAGAGTGACGCAGCAGTAGGGGGATTGGCTCCAGGGCCTGGCTGACGGTTGCACGTGGACACGGTGGCTTAGTTTTTTTTTTT [CoV2-RBD-6-Biotin]	1	10
ATCCAGAGTGACGCAGCACTGCGTAGGCGCGGCCAATGTGTAGGATTGCTCAGGTCTGCTGGACACGGTGGCTTAGTTTTTTTTTTT [CoV2-RBD-3-Biotin]	2	24
TTTTTTTTTTATCCAGAGTGACGCAGCAGGACTGCTTAGGATTGCGAAGCTGAGGAGCTCCCCCGCCTTGGACACGGTGGCTTAGT [Biotin-CoV2-RBD-5]	–	22
CAGCACCGACCTTGTGCTTTGGGAGTGCTGGTCCAAGGGCGTTAATGGACATTTTTTTTTT [CoV2-RBD-1C-Biotin]	1.5	27

Source: PMC8745424
